Measured values taken from the supplement of paper PMC11246515.
± gives the standard deviation of the averaged measurements.

Test: total protein half-life in vivo (active degradation + dilution); higher = more stable protein
[1] = E. coli NCM3722 delta-clpP, growth: N-lim chemostat, doubling time 6 h
[2] = E. coli NCM3722 delta-hslV, growth: N-lim chemostat, doubling time 6 h
[3] = E. coli NCM3722 delta-lon, growth: N-lim chemostat, doubling time 6 h
[4] = E. coli NCM3722 delta-smpB, growth: N-lim chemostat, doubling time 6 h
[5] = wild type E. coli NCM3722, growth: C-lim chemostat, doubling time 3 h
[6] = wild type E. coli NCM3722, growth: C-lim chemostat, doubling time 6 h
[7] = wild type E. coli NCM3722, growth: C-lim chemostat, doubling time 12 h
[8] = wild type E. coli NCM3722, growth: N-lim chemostat, doubling time 6 h
[9] = wild type E. coli NCM3722, growth: N-lim chemostat, doubling time 12 h
[10] = wild type E. coli NCM3722, growth: P-lim chemostat, doubling time 6 h
[11] = wild type E. coli NCM3722, growth: P-lim chemostat, doubling time 12 h
[12] = E. coli NCM3722 delta-clpP delta-lon delta-hslV, growth: N-lim chemostat, doubling time 6 h

Row | Sequence | total protein half-life in vivo [1] | total protein half-life in vivo [2] | total protein half-life in vivo [3] | total protein half-life in vivo [4] | total protein half-life in vivo [5] | total protein half-life in vivo [6] | total protein half-life in vivo [7] | total protein half-life in vivo [8] | total protein half-life in vivo [9] | total protein half-life in vivo [10] | total protein half-life in vivo [11] | total protein half-life in vivo [12]
1 | MRNFDLSPLYRSAIGFDRLFNHLENNQSQSNGGYPPYNVELVDENHYRIAIAVAGFAESELEITAQDNLLVVKGAHADEQKERTYLYQGIAERNFERKFQLAENIHVRGANLVNGLLYIDLERVIPEAKKPRRIEIN [P0C054] | 3.11 ± 0.15 h | 1.47 ± 0.1 h | 2.83 ± 0.24 h | 1.35 ± 0.082 h | 1.2 ± 0.21 h | 1.83 ± 0.025 h | 1.87 ± 0.3 h | 1.65 ± 0.42 h | 2.7 ± 0.45 h | 1.58 ± 0.077 h | 3.08 ± 0.14 h | –
2 | MRNHRISLQDIATLAGVTKMTVSRYIRSPKKVAKETGERIAKIMEEINYIPNRAPGMLLNAQSYTLGILIPSFQNQLFADILAGIESVTSEHNYQTLIANYNYDRDSEEESVINLLSYNIDGIILSEKYHTIRTVKFLRSATIPVVELMDVQGERLDMEVGFDNRQAAFDMVCTMLEKRVRHKILYLGSKDDTRDEQRYQGYCDAMMLHNLSPLRMNPRAISSIHLGMQLMRDALSANPDLDGVFCTNDDIAMGALLLCRERNLAVPEQISIAGFHGLEIGRQMIPSLASVITPRFDIGRMAAQMLLSKIKNNDHNHNTVDLGYQIYHGNTL | – | – | – | – | 0.548 h | – | 1.1 h | – | – | – | – | 6.39 ± 1.7 h
3 | MRNIIKLALAGLLSVSTFAVAAESSPEALRIGYQKGSIGMVLAKSHQLLEKRYPESKISWVEFPAGPQMLEALNVGSIDLGSTGDIPPIFAQAAGADLVYVGVEPPKPKAEVILVAENSPIKTVADLKGHKVAFQKGSSSHNLLLRALRQAGLKFTDIQPTYLTPADARAAFQQGNVDAWAIWDPYYSAALLQGGVRVLKDGTDLNQTGSFYLAARPYAEKNGAFIQGVLATFSEADALTRSQREQSIALLAKTMGLPAPVIASYLDHRPPTTIKPVNAEVAALQQQTADLFYENRLVPKKVDIRQRIWQPTQLEGKQL | 5.07 ± 0.72 h | – | 4.66 ± 1.7 h | 5.32 ± 0.25 h | > 4 h | 4.74 ± 0.1 h | 8.06 h | 5.64 h | 12.52 ± 0.069 h | – | – | 5.27 ± 1.8 h
4 | MRNPTLLQCFHWYYPEGGKLWPELAERADGFNDIGINMVWLPPAYKGASGGYSVGYDSYDLFDLGEFDQKGSIPTKYGDKAQLLAAIDALKRNDIAVLLDVVVNHKMGADEKEAIRVQRVNADDRTQIDEEIIECEGWTRYTFPARAGQYSQFIWDFKCFSGIDHIENPDEDGIFKIVNDYTGEGWNDQVDDELGNFDYLMGENIDFRNHAVTEEIKYWARWVMEQTQCDGFRLDAVKHIPAWFYKEWIEHVQEVAPKPLFIVAEYWSHEVDKLQTYIDQVEGKTMLFDAPLQMKFHEASRMGRDYDMTQIFTGTLVEADPFHAVTLVANHDTQPLQALEAPVEPWFKPLAYALILLRENGVPSVFYPDLYGAHYEDVGGDGQTYPIDMPIIEQLDELILARQRFAHGVQTLFFDHPNCIAFSRSGTDEFPGCVVVMSNGDDGEKTIHLGENYGNKTWRDFLGNRQERVVTDENGEATFFCNGGSVSVWVIEEVI | 4.16 ± 0.08 h | 4.036 ± 0.019 h | 4.4 ± 0.36 h | 4.26 ± 0.12 h | 3.21 ± 0.87 h | 6.29 ± 0.87 h | 12.4 ± 0.27 h | 4.2 ± 0.082 h | 6.75 ± 0.24 h | 5.54 ± 0.59 h | 13.4 ± 0.48 h | 5.23 ± 0.094 h
5 | MRPAGRSNNQVRPVTLTRNYTKHAEGSVLVEFGDTKVLCTASIEEGVPRFLKGQGQGWITAEYGMLPRSTHTRNAREAAKGKQGGRTMEIQRLIARALRAAVDLKALGEFTITLDCDVLQADGGTRTASITGACVALVDALQKLVENGKLKTNPMKGMVAAVSVGIVNGEAVCDLEYVEDSAAETDMNVVMTEDGRIIEVQGTAEGEPFTHEELLILLALARGESNPL [P0CG19] | 4.44 ± 0.39 h | > 8 h | 4.79 ± 0.48 h | 4.48 ± 0.11 h | – | – | 11.7 ± 3.8 h | 3.47 ± 0.77 h | 6.88 ± 0.082 h | 5.58 ± 0.93 h | – | 5.037 ± 0.026 h
6 | MRRANDPQRREKIIQATLEAVKLYGIHAVTHRKIATLAGVPLGSMTYYFSGIDELLLEAFSSFTEIMSRQYQAFFSDVSDAPGACQAITDMIYSSQVATPDNMELMYQLYALASRKPLLKTVMQNWMQRSQQTLEQWFEPGTARALDAFIEGMTLHFVTDRKPLSREEILRMVERVAG | 4.84 h | 4.98 ± 0.17 h | – | 4.87 ± 0.94 h | 2.46 ± 0.18 h | 4.6 h | 5.18 h | 5.11 h | 8.57 h | 4.06 h | 6.17 ± 0.89 h | 5.17 ± 0.91 h
7 | MRRELAIEFSRVTESAALAGYKWLGRGDKNTADGAAVNAMRIMLNQVNIDGTIVIGEGEIDEAPMLYIGEKVGTGRGDAVDIAVDPIEGTRMTAMGQANALAVLAVGDKGCFLNAPDMYMEKLIVGPGAKGTIDLNLPLADNLRNVAAALGKPLSELTVTILAKPRHDAVIAEMQQLGVRVFAIPDGDVAASILTCMPDSEVDVLYGIGGAPEGVVSAAVIRALDGDMNGRLLARHDVKGDNEENRRIGEQELARCKAMGIEAGKVLRLGDMARSDNVIFSATGITKGDLLEGISRKGNIATTETLLIRGKSRTIRRIQSIHYLDRKDPEMQVHIL [P0A9C9] | 4.69 ± 0.43 h | 4.84 ± 0.68 h | 4.309 ± 0.04 h | 4.27 ± 0.27 h | 3.593 ± 0.019 h | 5.39 ± 0.19 h | 9.84 ± 0.62 h | 4.51 ± 0.52 h | 7.05 ± 0.25 h | 5.75 ± 0.21 h | 12 ± 1.2 h | –
8 | MRRILSVLLENESGALSRVIGLFSQRGYNIESLTVAPTDDPTLSRMTIQTVGDEKVLEQIEKQLHKLVDVLRVSELGQGAHVEREIMLVKIQASGYGRDEVKRNTEIFRGQIIDVTPSLYTVQLAGTSGKLDAFLASIRDVAKIVEVARSGVVGLSRGDKIMR | 6.01 ± 0.31 h | 5.93 ± 0.45 h | 5.9 ± 0.55 h | 5.37 ± 0.21 h | 3.07 ± 0.047 h | 5.93 ± 0.13 h | 10.5 ± 0.55 h | 5.72 ± 0.27 h | 9.51 ± 0.46 h | 5.98 ± 0.1 h | 12.4 ± 0.78 h | 5.652 ± 0.022 h
